The values below come from US7763426B2, “Probes and methods for detection of Escheridia coli and antibiotic resistance” (priority 2004, dated 2010).

Series [1] relates to bacterial 16S rRNA. The series is described as follows: Sensor validation using control ATCC bacterial strains, UTI Chip with 7-detector-probe mixture (Example 3). The series is classed as binding. From the text:
The following American Type Culture Collection (ATCC) strains were obtained from the UCLA Clinical Microbiology Laboratory: Escherichia coli strain 35218, Klebsiella pneumoniae strain 13883, K. oxytoca strain 49131, Enterobacter aerogenes strain 13048. E. cloacae strain 13047, Proteus mirabilis strain 12453, Pseudomonas aeruginosa strain 10145, Citrobacter freundii strain 8090, and Enterococcus faecalis strain 49532. Additional strains of uropathogenic bacteria were obtained from the UCLA Uropathogen Specimen Bank: E. coli strain Ec103, K. pneumoniae strain Kp295, P. mirabilis strain Pm278, P. aeruginosa strain Pa3, and E. faecalis strain Eo111. Isolation of uropathogens from clinical urine specimens was approved by the UCLA and VA Greater Los Angeles Healthcare System institutional Review Boards. The identity of all clinical strains was determined by standard biochemical assays and verified by 16S rRNA gene sequencing. The 16S rRNA genes were PCR amplified with universal primers 8UA and 1485B.^17 The amplified product was purified by using the QIAquick PCR purification kit (QIAGEN, Inc., Chatsworth, Calif.) and directly sequenced using primer pairs 8UA/907B and 774A/1485B as described previously.^18 DNA sequencing was performed at the W. M. Keck Foundation Biotechnology Resource Laboratory (New Haven, Conn.). Isolates were inoculated into Brucella broth with 15% glycerol (BBL, Maryland) and were stored at −70° C. Bacteria were grown overnight in Luria Broth (LB), inoculated into LB and grown to logarithmic phase as measured by OD600. Concentration of the logarithmic phase specimens was determined by serial plating, typically yielding 10^7-10^8 bacteria/ml.
Logarithmic phase bacterial cells were concentrated by centrifugation at 10.000 rpm for 5 min, Lysis of bacterial cells was performed by addition of 10 μl of one or more of the following […]. 0.1% Triton X-100 in 20 mM Tris-HCl, pH 8.0, 2 mM EDTA and 1 mg/ml lysozyme (Sigma). After incubation at room temperature, 50 μl of the detector probe (0.25 μM) in 2.5% bovine serum albumin (Sigma)—1 M phosphate buffer, pH 7.4, was added to the bacterial lysate. The detector probe/bacterial lysate mixture was incubated for 10 min at 65° C. to allow hybridization of the detector probe to target rRNA. 4 μl of the bacterial lysate/detector probe mixture was deposited on each of the working electrodes in the sensor array. The sensor array was incubated for 10 min at 65° C. in a humidified chamber. After washing and drying, 4 μl of 0.5 U/mil anti-fluorescein horseradish peroxidase (HRP) Fab conjugate (Roche, diluted in 0.5% casein in 1 M sodium phosphate buffer, pH 7.4) were deposited on each of the working electrodes for 10-15 min. After washing and drying, a prefabricated plastic well manifold (GeneFluidics) was bonded to the sensor array. 50 μl of HRP substrate solution (K-Blue Aqueous TMB, Neogen, Lexington, Ky.) was placed on each of the sensors in the array so as to cover all three of the electrodes. Measurements were immediately and simultaneously taken for all 16 sensors. The entire assay protocol was completed within 45 min from the initiation of bacterial lysis. Amperometric current vs. time was measured using a multichannel potentiostat (GeneFluidics). The voltage was fixed at −200 mV (vs. reference), and the electroreduction current was measured at 60 sec after the HRP redox reaction reached steady state. Negative controls were included in each experiment in which 1 M phosphate buffer, pH 7.4, was used as the target instead of bacterial lysate. All samples were analyzed in duplicate.
Experiments were performed on ATCC strains to verify probe specificity using a 16-sensor array “UTI chip” in which the UNI782C, EB1176C, EC434C, KE434C, PM187C, PA102C, and EF207C 5′-biotinylated capture probes (defined in Table 1) were tested in duplicate. The two remaining sensors in the array served as negative controls (using capture probe UNI782C without bacterial lysate). […]

Series [2] deals with E. coli 16S rRNA. Nature of the series: Amperometric detection of E. coli 16S rRNA with short probes at ambient temperature (Example 5). The series is classed as binding, Escherichia coli. The following applies: for sensitivity (threshold): fivefold dilutions of E. coli cells.
Series [3] relates to bacterial 16S rRNA. The series is described as follows: Species specificity of short probe pairs, 16 sensor array at ambient temperature (Example 5). The series is classed as binding.
Series [4] has as its system 16S rRNA in lysates of uropathogens. The series is described as follows: Species specificity of uropathogen probe pairs with the electrochemical sensor array (Example 1). The series is classed as binding. The following applies: probe pairs of Table 1.
The subject of series [5] is bacterial 16S rRNA. Nature of the series: Clinical validity study: UTI Chip on blinded clinical urine specimens. The series is classed as binding. The method, then: Amperometric detection of bacterial 16S rRNA. An overview of the electrochemical sensor detection strategy is presented in panel C of FIG. 1. One ml of bacteria in Luria broth, inoculated clean urine, or clinical urine samples was centrifuged at 10,000×g for 5 min. The supernatant was discarded and the bacteria were lysed by resuspension of the pellet in 10 μl of 1 M NaOH and incubation at room temperature for 5 min. In some experiments, addition of 1M NaOH was preceded by resuspension of the bacterial pellet in 10 μl of 0.1% Triton X-100, 2 mM EDTA, and 1 mg/ml lysozyme (Sigma) in 20 mM Tris-HCl, pH 8.0, and incubation at room temperature for 5 min. 50 μl of the detector probe (0.25 μM) in 2.5% bovine serum albumin (Sigma, St. Louis, Mo.) 1 M phosphate buffer, pH 7.4, were added to the bacterial lysate and incubated for 10 min at 65° C. to allow target-probe hybridization. 4 μl of the bacterial lysate/detector probe mixture was deposited on each of the working electrodes in the sensor array and incubated for 15 min at 65° C. in a humidified chamber. After washing and drying, 4 μl of 0.5 U/ml anti-fluorescein horseradish peroxidase (HRP) Fab fragments (Roche, diluted in 0.5% casein in 10 mM phosphate buffered saline, pH 7.4) were deposited on each of the working electrodes for 15 min. After washing and drying, a prefabricated plastic well manifold (GeneFluidics, Monterey Park, Calif.) was bonded to the sensor array. The sensor array was put into the chip reader (FIG. 18) and 50 μl of 3,3′,5,5′-tetramethylbenzidine (TMB), H2O2 solution (K-Blue Low Activity TMB Substrate, Neogen, Lexington, Ky.) was placed on each of the sensors in the array so as to cover all three electrodes of each sensor. Electrochemical measurements are immediately and simultaneously taken for all 16 sensors. For each array, negative control (NC) sensors were tested including the UNI capture probe, detector probe, and 2.5% bovine serum albumin (Sigma, St, Louis, Mo.) in 1 M phosphate buffer, pH 7.4, instead of bacterial lysate. The entire assay protocol was completed within 45 min from the time when bacterial lysis was commenced. Amperometric current vs. time was measured using a multichannel potentiostat (GeneFluidics). The voltage was fixed at −200 mV (vs. reference), and the electroreduction current was measured at 60 s after the HRP redox reaction reached steady state.
Clinical validity study design. Clinical urine specimens were received from routine urine cultures collected from inpatients and outpatients and submitted to the UCLA Clinical Microbiology Laboratory. Routine plating on tripticase soy agar with 5% sheep blood was performed on each specimen for phenotypic identification and colony counting while an aliquot of each specimen was held at 4° C. overnight. On the day after plating, specimens were selected for inclusion in the study on the basis of a rapid indole test for the purpose of including uropathogens other than Escherichia coli in approximately one-half of the specimens. The other half of the specimens were divided between E. coli-containing specimens and specimens determined to have ““no significant growth” or no growth” (see definitions below). Because most UTIs involve a single uropathogen, specimens determined by the clinical microbiology laboratory to have more than one organism present were excluded. Blinded specimens selected for inclusion in the study were stripped of patient identifiers and any microbiological data before delivery to the research laboratory for testing with the electrochemical sensor array.
Experiments were performed on all specimens using the 16-sensor array ‘UTI Chip’, in which the UNI, EB, EC, PM, KE, PA, and EF capture probes (defined in Tables 1 and 2) were tested in duplicate. The two remaining sensors served as negative controls (including capture and detector probes without bacterial lysate). […]

Setting [6] is: specimens with Escherichia coli.
[7] abbreviates: specimens with Proteus mirabilis.
Where [8] appears, read: No Significant Growth specimens.
[9] abbreviates: specimens with Enterococcus species.

“Also recorded” adds a separate entry of the source. {Fluorescein} = fluorescein label (binding site for anti-fluorescein Fab-HRP); {Biotin} = biotin (capture probe anchor)

Consider “CATCGTTTACGGCGTGGACTACCAGGG (DNA CATCGTTTACGGCGTGGACTACCAGGG; chemistry not given here) [UNI782C]”, for which the capture probe specificity result in series [1] is reported as “detected all bacterial uropathogens tested”.

With “CCCACTTTCTCCCTCAGGACGTATGCGGTATTAGC (DNA CCCACTTTCTCCCTCAGGACGTATGCGGTATTAGC; chemistry not given here; listed as Pseudomonas aeruginosa) [PA111C]”, the capture probe specificity entry in series [1] is “P. aeruginosa”.

“CGGACTACGACRYACTTTATGAGGTCCGCTTGCTC (DNA CGGACTACGACRYACTTTATGAGGTCCGCTTGCTC; chemistry not given here; listed as Enterobacter sp.) [EB1172C]”: the capture probe specificity entry in series [1] is “positive for all members of the family Enterobacteriaceae tested and negative for P. aeruginosa and E. faecalis”.

As to “EC439C (15 mer)/EC424D (15 mer): E. coli probe pair, SEQ ID NO: 44 and 45 (DNA 1 TATTAACTTTACTCC; DNA 2 CTTCCTCCCCGCTGA; chemistry not given here; listed as Escherichia coli)”, the mean current in series [2] was 1605 negative nanoamperes. For the same molecule, the “sensitivity (threshold)” value is “approximately 250 cells” in series [2] (listed as 15mer capture and detector probes); “approximately 173 cells” in series [2] (listed as E. coli-specific 15mer probe pairs). Moreover, in series [3] (ambient temperature), the “cross-reactivity with P. aeruginosa” value was “Weak cross-reactivity”. In addition, the Species detected entry in series [3] (ambient temperature hybridization) is given as “Ec”. Also, the Species not detected result in series [3] (ambient temperature, * cross-reactivity at a level significantly less than with the target species) was “Ea, Ef, Kp, Pa*, Pm”.

Take “GGGTTCATCCGATAGTGCAAGGTCCGAAGAGCCCC (DNA GGGTTCATCCGATAGTGCAAGGTCCGAAGAGCCCC; chemistry not given here; listed as Proteus mirabilis) [PM188C]”: the capture probe specificity entry in series [1] is “specific for P. mirabilis”.

Turning to “GTCAATCGNCRAGGTTATTAACCTYAHCGCCTTCC (DNA GTCAATCGMCRAGGTTATTAACCTYAHCGCCTTCC; chemistry not given here; listed as Klebsiella pneumoniae) [KE434C]”, the capture probe specificity entry in series [1] is given as “positive for all Enterobacteriaceae except E. coli”.

Turning to “GTCAATGAGCAAAGGTATTAACTTTACTCCCTTCC (DNA GTCAATGAGCAAAGGTATTAACTTTACTCCCTTCC; chemistry not given here; listed as Escherichia coli) [EC434C]”, the capture probe specificity entry in series [1] is given as “positive for E. coli”.

On to “TTGGTGAGCCGTTACCTCACCAACTAGCTAATGCA (DNA TTGGTGAGCCGTTACCTCACCAACTAGCTAATGCA; chemistry not given here; listed as Enterococcus sp.) [EF207C]”, for which the capture probe specificity result in series [1] was “E. faecalis”.

B1: EC: Escherichia coli probe pair: capture 449 (35 mer) SEQ ID NO: 1, detector 408 (35 mer) SEQ ID NO: 2 (nucleic acid, listed as Escherichia coli)
DNA 1: GTCAATGAGCAAAGGTATTAACTTTACTCCCTTCC
DNA 2: CTGAAAGTACTTTACAACCCGAAGGCCTTCTTCAT
modifications: DNA 1: 5' {Biotin}, sugars by position and backbone not given here; DNA 2: 5' {Fluorescein}, sugars by position and backbone not given here
For B1, in series [4], the Species detected entry was “Ec” and the Species not detected result is “Cf, Ea, El Eo, Ko, Kp,; also recorded: Pa, Pm”. Further, in series [5] (setting [6]), the “Mean (range)” value is 1.06 (0.48-1.59) log10 units over background and the “Positive/Total = Percent” value is listed as “Ec 26/26 = 100%”.

B2: PM: Proteus mirabilis probe pair: capture 202 (35 mer) SEQ ID NO: 3, detector 162 (35 mer) SEQ ID NO: 4 (nucleic acid, listed as Proteus mirabilis)
DNA 1: GGGTTCATCCGATAGTGCAAGGTCCGAAGAGCCCC
DNA 2: GGTCCGTAGACATTATGCGGTATTAGCCACCGTTT
modifications: DNA 1: 5' {Biotin}, sugars by position and backbone not given here; DNA 2: 5' {Fluorescein}, sugars by position and backbone not given here
On to B2, for which, in series [4], the Species detected entry is reported as “Pm” and the Species not detected result is given as “Cf, Ea, Ec, El, Eo, Ko, Kp, Pa”. Besides, in series [5] (setting [7]), the “Mean (range)” value was 0.74 (0.48-0.96) log10 units over background and the “Positive/Total = Percent” value was “Pm 3/3 = 100%”.

B3: EF: Enterococcus spp probe pair: capture SEQ ID NO: 9, detector SEQ ID NO: 10 (nucleic acid, listed as Enterococcus sp.)
DNA 1: TTGGTGAGCCGTTACCTCACCAACTAGCTAATGCA
DNA 2: GTCCATCCATCAGCGACACCCGAAAGCGCCTTTCA
modifications: DNA 1: 5' {Biotin}, sugars by position and backbone not given here; DNA 2: 5' {Fluorescein}, sugars by position and backbone not given here
B3: in series [4], the Species detected result is “Ef, Eo” and the Species not detected result was “Ec, Kp, Pa, Pm, Sa”. Besides, in series [5] (setting [8]), the “Mean (range)” value is listed as 0.31 log10 units over background and the “Positive/Total = Percent” value is given as “Ef 1/8 = 13%”. Also, in series [5] (setting [9]), the “Mean (range)” value was 0.99 (0.63-1.36) log10 units over background and the “Positive/Total = Percent” value is on record as “Ef 2/8 = 25%”.
